According to article PMC6005519, “Reconstitution and functional studies of hamster P-glycoprotein in giant liposomes” (PLoS ONE, 2018):

System: T1, Nc1ncnc2c1ncn2[C@@H]1O[C@H](COP(=O)(O)OP(=O)(O)OP(=O)(O)O)[C@@H](O)[C@H]1O
T1 construct: Purified Pgp extracted from Chinese Hamster Ovary B30 cells, reconstituted in giant liposomes
Assay: Km of ATP from Rho123 transport rates in giant proteoliposomes; colorimetric ATPase assay
Type: biochemical, Cricetulus griseus

Chain of P-glycoprotein (Pgp, ABCB1) (Cricetulus griseus) (chain, as listed by the source): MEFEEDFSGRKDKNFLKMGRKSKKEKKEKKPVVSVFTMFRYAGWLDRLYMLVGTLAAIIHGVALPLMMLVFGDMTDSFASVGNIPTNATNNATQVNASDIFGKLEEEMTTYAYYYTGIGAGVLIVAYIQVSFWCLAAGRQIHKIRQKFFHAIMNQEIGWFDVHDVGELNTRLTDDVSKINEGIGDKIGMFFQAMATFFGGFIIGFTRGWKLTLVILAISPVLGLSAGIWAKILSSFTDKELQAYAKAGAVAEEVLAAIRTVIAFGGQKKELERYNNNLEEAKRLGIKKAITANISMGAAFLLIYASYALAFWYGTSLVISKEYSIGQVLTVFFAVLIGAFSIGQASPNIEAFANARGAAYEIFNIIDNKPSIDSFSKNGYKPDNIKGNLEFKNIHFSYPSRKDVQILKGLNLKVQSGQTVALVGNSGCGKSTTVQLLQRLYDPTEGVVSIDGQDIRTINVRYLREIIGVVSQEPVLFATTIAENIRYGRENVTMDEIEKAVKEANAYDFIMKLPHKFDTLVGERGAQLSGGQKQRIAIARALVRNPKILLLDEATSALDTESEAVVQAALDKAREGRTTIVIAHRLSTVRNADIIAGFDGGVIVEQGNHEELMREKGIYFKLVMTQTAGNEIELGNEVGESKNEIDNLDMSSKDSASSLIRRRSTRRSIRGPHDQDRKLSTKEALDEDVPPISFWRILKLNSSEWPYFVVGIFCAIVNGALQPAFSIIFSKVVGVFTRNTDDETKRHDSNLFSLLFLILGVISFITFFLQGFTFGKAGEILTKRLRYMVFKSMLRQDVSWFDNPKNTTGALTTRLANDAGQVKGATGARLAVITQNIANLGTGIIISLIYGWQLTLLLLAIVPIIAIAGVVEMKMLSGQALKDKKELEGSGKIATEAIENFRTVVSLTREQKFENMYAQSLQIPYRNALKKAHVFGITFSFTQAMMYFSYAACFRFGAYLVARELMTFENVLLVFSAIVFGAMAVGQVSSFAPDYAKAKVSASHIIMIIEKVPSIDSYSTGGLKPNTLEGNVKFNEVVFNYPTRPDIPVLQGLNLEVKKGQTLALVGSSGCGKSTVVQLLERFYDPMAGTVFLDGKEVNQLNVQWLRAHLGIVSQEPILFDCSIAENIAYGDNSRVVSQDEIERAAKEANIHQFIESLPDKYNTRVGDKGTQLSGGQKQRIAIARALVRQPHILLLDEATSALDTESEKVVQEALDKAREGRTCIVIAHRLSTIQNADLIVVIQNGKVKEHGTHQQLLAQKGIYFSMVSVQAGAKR

## P-glycoprotein (Pgp, ABCB1) (Cricetulus griseus)
  Km: 420 ± 750 µM
